The target of assay [1] is T1, recombinant human PSMA (R&D, cat. no. 4234-ZN) (human, UniProt Q04609 44-750).
T1 construct: also called rhPSMA; Recombinant PMSA
Put plainly: periprep/phage screen, rhPSMA.

For assay [2], the target named is cynomolgus PSMA, full-length, expressed on CHO cells (cynomolgus, UniProt A0A2K5VNZ0 1-750). Briefly: cell-based or functional assay.
For assay [3], the target named is human PSMA (prostate specific membrane antigen), full-length, expressed on cells (human, UniProt Q04609 1-750). Briefly: cell-based or functional assay.
Chain of human PSMA (prostate specific membrane antigen), full-length, expressed on cells (Q04609 whole entry): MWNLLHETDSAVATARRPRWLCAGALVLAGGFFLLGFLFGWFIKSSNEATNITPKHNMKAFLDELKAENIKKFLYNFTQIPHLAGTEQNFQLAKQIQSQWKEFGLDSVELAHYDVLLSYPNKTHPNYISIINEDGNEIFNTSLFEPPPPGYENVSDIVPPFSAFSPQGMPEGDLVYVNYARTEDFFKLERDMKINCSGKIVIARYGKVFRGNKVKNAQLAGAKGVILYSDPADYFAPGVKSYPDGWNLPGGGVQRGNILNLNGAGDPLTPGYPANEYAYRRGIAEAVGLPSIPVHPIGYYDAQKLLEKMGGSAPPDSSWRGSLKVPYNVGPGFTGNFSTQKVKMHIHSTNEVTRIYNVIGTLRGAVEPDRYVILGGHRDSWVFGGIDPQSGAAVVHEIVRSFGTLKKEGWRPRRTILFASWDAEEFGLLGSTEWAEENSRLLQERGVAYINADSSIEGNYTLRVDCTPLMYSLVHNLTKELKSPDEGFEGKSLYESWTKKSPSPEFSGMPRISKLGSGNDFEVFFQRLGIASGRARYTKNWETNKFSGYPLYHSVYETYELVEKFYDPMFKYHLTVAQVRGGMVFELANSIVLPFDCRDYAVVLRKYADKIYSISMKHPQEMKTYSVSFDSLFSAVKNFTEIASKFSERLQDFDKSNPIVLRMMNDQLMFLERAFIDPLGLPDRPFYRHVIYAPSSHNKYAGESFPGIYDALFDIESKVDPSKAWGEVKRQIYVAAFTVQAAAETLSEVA

T1 sequence (Q04609 44-750 limits assumed): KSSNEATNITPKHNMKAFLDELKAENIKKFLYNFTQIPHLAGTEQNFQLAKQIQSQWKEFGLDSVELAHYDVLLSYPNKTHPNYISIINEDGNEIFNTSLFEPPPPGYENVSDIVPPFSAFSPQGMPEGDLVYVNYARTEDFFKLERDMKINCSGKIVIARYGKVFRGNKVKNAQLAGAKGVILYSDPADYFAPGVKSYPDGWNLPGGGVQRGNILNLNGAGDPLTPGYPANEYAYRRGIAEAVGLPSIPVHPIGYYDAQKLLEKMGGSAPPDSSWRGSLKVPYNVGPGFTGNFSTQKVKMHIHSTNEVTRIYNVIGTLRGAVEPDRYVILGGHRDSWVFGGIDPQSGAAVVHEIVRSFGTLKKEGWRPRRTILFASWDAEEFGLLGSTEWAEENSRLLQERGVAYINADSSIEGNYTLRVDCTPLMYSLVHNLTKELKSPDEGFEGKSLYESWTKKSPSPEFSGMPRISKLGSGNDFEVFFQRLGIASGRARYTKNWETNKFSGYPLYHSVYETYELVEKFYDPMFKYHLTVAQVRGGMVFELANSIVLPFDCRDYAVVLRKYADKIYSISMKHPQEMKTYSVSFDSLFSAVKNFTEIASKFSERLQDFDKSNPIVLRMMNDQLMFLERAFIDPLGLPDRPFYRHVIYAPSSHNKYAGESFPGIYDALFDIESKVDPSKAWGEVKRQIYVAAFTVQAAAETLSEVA

B1: single VH domain antibody 9.1 (VHH)
VHH: QVQLQQWGAGLLKPSETLSLTCAVYGGSFSGHYWSWIRQPPGKGLEWIGDINHSGSTNYNPSLKSRVTISVDTSKNQFSLKLSSVTAADTAVYYCVRDYGDSRSLFDYWGQGTLVTVSS
notes: human single VH domain (Humabody); not shown: C-terminal His tag
Turning to B1, the binding result in assay [1] is “no binding”.

B2: single VH domain antibody 8.1 (VHH)
VHH: QVQLQQWGAGLLKPSETLSLTCAVYGGSFSGYYWSWIRQPPGKGLEWIGEINHSGSTNYNPSLKSRVTISVDTSKNQFSLKLSSVTAADTAVYYCARGPIPATAIPDAFDIWGQGTMVTVSS
notes: as for B1
Regarding B2, the binding result in assay [1] was “no binding”.

B3: 1.11-6GS-2.1 (bispecific antibody, not shown: small tags and cut ends)
chain: EVQLLESGGGLVQPGGSLRLSCAASGFSFSSYALSWVRQAPGKGLEWVSSIGENNDTTDYADNVKGRFTISRDNSKNTLYLQMNSLRVEDTAVYYCVKDGVHWGQGTLVTVSSGGGGSGGGGSGGGGSGGGGSGGGGSGGGGSEVQLVESGGGVVQPGRSLRLSCAASGFSFSGYGMHWVRQAPGKGLEWVAYISYDGSNKYYADSVKGRFTISRDNSKNTLYLQMNSLRAEDTAVYYCAKDPAWGLRLGESSSYDFDIWGQGTMVTVSS
On to B3, for which the “His-ZAP cell killing, cyno PSMA Average EC50” value in assay [2] turned out to be 12 pM. Also, the “His-ZAP cell killing, human PSMA Average EC50” value in assay [3] was 17 pM.

B4: 1.16-6GS-2.15 (bispecific antibody, not shown: small tags and cut ends)
chain: EVQLLESGGGLVQPGGSLRLSCAASGFSFSSYALSWVRQAPGKGLEWVSSIGENNHTTDYADTVKGRFTISRDNSKNTLYLQMNSLRVEDTAVYYCVKDGVHWGQGTLVTVSSGGGGSGGGGSGGGGSGGGGSGGGGSGGGGSEVQLVESGGGVVQPGRSLRLSCAASGFSFSGYGLHWVRQAPGKGLEWVAYISYDKSNKYYADKVKGRFTISRDNSKNTLYLQMNSLRAEDTAVYYCAKDPAWGLRLGESSSYDFDIWGQGTMVTVSS
Take B4: the “His-ZAP cell killing, cyno PSMA Average EC50” value in assay [2] was found to be 11 pM.

B5: 1.16-6GS-2.1 (bispecific antibody, not shown: small tags and cut ends)
chain: EVQLLESGGGLVQPGGSLRLSCAASGFSFSSYALSWVRQAPGKGLEWVSSIGENNHTTDYADTVKGRFTISRDNSKNTLYLQMNSLRVEDTAVYYCVKDGVHWGQGTLVTVSSGGGGSGGGGSGGGGSGGGGSGGGGSGGGGSEVQLVESGGGVVQPGRSLRLSCAASGFSFSGYGMHWVRQAPGKGLEWVAYISYDGSNKYYADSVKGRFTISRDNSKNTLYLQMNSLRAEDTAVYYCAKDPAWGLRLGESSSYDFDIWGQGTMVTVSS
B5: in assay [2], the “His-ZAP cell killing, cyno PSMA Average EC50” value is 13 pM. In addition, the “His-ZAP cell killing, human PSMA Average EC50” value in assay [3] was determined as 14 pM.

B6: 1.1-6GS-2.22 (bispecific antibody, not shown: small tags and cut ends)
chain: EVQLLESGGGLVQPGGSLRLSCAASGFSFSSYAMSWVRQAPGKGLEWVSSIGENDGTTDYADSVKGRFTISRDNSKSMLYLQMNSLRVEDTAVYYCVKDGVHWGQGTLVTVSSGGGGSGGGGSGGGGSGGGGSGGGGSGGGGSEVQLVESGGGVVQPGRSLRLSCAASGFSFSGYGTHWVRQAPGKGLEWVAYISYDGSNKYYAAPVKGRFTISRDNSKNTLYLQMNSLRAEDTAVYYCAKDAAWGLRLGESSSYDFDIWGQGTMVTVSS
With B6, the “His-ZAP cell killing, cyno PSMA Average EC50” value in assay [2] came out at 7.8 pM.

B7: 1.11-6GS-2.17 (bispecific antibody, not shown: small tags and cut ends)
chain: EVQLLESGGGLVQPGGSLRLSCAASGFSFSSYALSWVRQAPGKGLEWVSSIGENNDTTDYADNVKGRFTISRDNSKNTLYLQMNSLRVEDTAVYYCVKDGVHWGQGTLVTVSSGGGGSGGGGSGGGGSGGGGSGGGGSGGGGSEVQLVESGGGVVQPGRSLRLSCAASGFSFSGYGMHWVRQAPGKGLEWVAYISYDASNKYYADNVKGRFTISRDNSKNTLYLQMNSLRAEDTAVYYCAKDPAWGLRLGESSSYDFDIWGQGTMVTVSS
Regarding B7, in assay [2], the “His-ZAP cell killing, cyno PSMA Average EC50” value worked out at 8.1 pM. For the same molecule, in assay [3], the “His-ZAP cell killing, human PSMA Average EC50” value worked out at 7.9 pM.

B8: 1.16-6GS-2.17 (bispecific antibody, not shown: small tags and cut ends)
chain: EVQLLESGGGLVQPGGSLRLSCAASGFSFSSYALSWVRQAPGKGLEWVSSIGENNHTTDYADTVKGRFTISRDNSKNTLYLQMNSLRVEDTAVYYCVKDGVHWGQGTLVTVSSGGGGSGGGGSGGGGSGGGGSGGGGSGGGGSEVQLVESGGGVVQPGRSLRLSCAASGFSFSGYGMHWVRQAPGKGLEWVAYISYDASNKYYADNVKGRFTISRDNSKNTLYLQMNSLRAEDTAVYYCAKDPAWGLRLGESSSYDFDIWGQGTMVTVSS
Consider B8, for which the “His-ZAP cell killing, cyno PSMA Average EC50” value in assay [2] amounted to 11 pM. In addition, in assay [3], the “His-ZAP cell killing, human PSMA Average EC50” value is 15 pM.

B9: 1.16-6GS-2.22 (bispecific antibody, not shown: small tags and cut ends)
chain: EVQLLESGGGLVQPGGSLRLSCAASGFSFSSYALSWVRQAPGKGLEWVSSIGENNHTTDYADTVKGRFTISRDNSKNTLYLQMNSLRVEDTAVYYCVKDGVHWGQGTLVTVSSGGGGSGGGGSGGGGSGGGGSGGGGSGGGGSEVQLVESGGGVVQPGRSLRLSCAASGFSFSGYGTHWVRQAPGKGLEWVAYISYDGSNKYYAAPVKGRFTISRDNSKNTLYLQMNSLRAEDTAVYYCAKDAAWGLRLGESSSYDFDIWGQGTMVTVSS
For the molecule B9, the “His-ZAP cell killing, cyno PSMA Average EC50” value in assay [2] was found to be 11 pM. In addition, in assay [3], the “His-ZAP cell killing, human PSMA Average EC50” value was 20 pM.

B10: 1.1-6GS-2.1 (bispecific antibody, not shown: small tags and cut ends)
chain: EVQLLESGGGLVQPGGSLRLSCAASGFSFSSYAMSWVRQAPGKGLEWVSSIGENDGTTDYADSVKGRFTISRDNSKSMLYLQMNSLRVEDTAVYYCVKDGVHWGQGTLVTVSSGGGGSGGGGSGGGGSGGGGSGGGGSGGGGSEVQLVESGGGVVQPGRSLRLSCAASGFSFSGYGMHWVRQAPGKGLEWVAYISYDGSNKYYADSVKGRFTISRDNSKNTLYLQMNSLRAEDTAVYYCAKDPAWGLRLGESSSYDFDIWGQGTMVTVSS
Regarding B10, the “His-ZAP cell killing, cyno PSMA Average EC50” value in assay [2] is 12 pM.

B11: 1.11-6GS-2.22 (bispecific antibody, not shown: small tags and cut ends)
chain: EVQLLESGGGLVQPGGSLRLSCAASGFSFSSYALSWVRQAPGKGLEWVSSIGENNDTTDYADNVKGRFTISRDNSKNTLYLQMNSLRVEDTAVYYCVKDGVHWGQGTLVTVSSGGGGSGGGGSGGGGSGGGGSGGGGSGGGGSEVQLVESGGGVVQPGRSLRLSCAASGFSFSGYGTHWVRQAPGKGLEWVAYISYDGSNKYYAAPVKGRFTISRDNSKNTLYLQMNSLRAEDTAVYYCAKDAAWGLRLGESSSYDFDIWGQGTMVTVSS
Take B11: in assay [2], the “His-ZAP cell killing, cyno PSMA Average EC50” value amounted to 9.5 pM. The “His-ZAP cell killing, human PSMA Average EC50” value in assay [3] was found to be 10 pM.

B12: 1.1-6GS-2.17 (bispecific antibody, not shown: small tags and cut ends)
chain: EVQLLESGGGLVQPGGSLRLSCAASGFSFSSYAMSWVRQAPGKGLEWVSSIGENDGTTDYADSVKGRFTISRDNSKSMLYLQMNSLRVEDTAVYYCVKDGVHWGQGTLVTVSSGGGGSGGGGSGGGGSGGGGSGGGGSGGGGSEVQLVESGGGVVQPGRSLRLSCAASGFSFSGYGMHWVRQAPGKGLEWVAYISYDASNKYYADNVKGRFTISRDNSKNTLYLQMNSLRAEDTAVYYCAKDPAWGLRLGESSSYDFDIWGQGTMVTVSS
For the molecule B12, the “His-ZAP cell killing, cyno PSMA Average EC50” value in assay [2] came out at 11 pM.

B13: 1.11-6GS-2.15 (bispecific antibody, not shown: small tags and cut ends)
chain: EVQLLESGGGLVQPGGSLRLSCAASGFSFSSYALSWVRQAPGKGLEWVSSIGENNDTTDYADNVKGRFTISRDNSKNTLYLQMNSLRVEDTAVYYCVKDGVHWGQGTLVTVSSGGGGSGGGGSGGGGSGGGGSGGGGSGGGGSEVQLVESGGGVVQPGRSLRLSCAASGFSFSGYGLHWVRQAPGKGLEWVAYISYDKSNKYYADKVKGRFTISRDNSKNTLYLQMNSLRAEDTAVYYCAKDPAWGLRLGESSSYDFDIWGQGTMVTVSS
For B13, the “His-ZAP cell killing, cyno PSMA Average EC50” value in assay [2] is 9 pM.

B14: 1.1-6GS-2.15 (bispecific antibody, not shown: small tags and cut ends)
chain: EVQLLESGGGLVQPGGSLRLSCAASGFSFSSYAMSWVRQAPGKGLEWVSSIGENDGTTDYADSVKGRFTISRDNSKSMLYLQMNSLRVEDTAVYYCVKDGVHWGQGTLVTVSSGGGGSGGGGSGGGGSGGGGSGGGGSGGGGSEVQLVESGGGVVQPGRSLRLSCAASGFSFSGYGLHWVRQAPGKGLEWVAYISYDKSNKYYADKVKGRFTISRDNSKNTLYLQMNSLRAEDTAVYYCAKDPAWGLRLGESSSYDFDIWGQGTMVTVSS
Consider B14, for which the “His-ZAP cell killing, cyno PSMA Average EC50” value in assay [2] was 8.6 pM.

B15: 1.18-6GS-2.1 (bispecific antibody, not shown: small tags and cut ends)
chain: EVQLLESGGGLVQPGGSLRLSCAASGFSFSSYALSWVRQAPGKGLEWVSSIGENNATTDYAASVKGRFTISRDNSKNTLYLQMNSLRVEDTAVYYCVKDGVHWGQGTLVTVSSGGGGSGGGGSGGGGSGGGGSGGGGSGGGGSEVQLVESGGGVVQPGRSLRLSCAASGFSFSGYGMHWVRQAPGKGLEWVAYISYDGSNKYYADSVKGRFTISRDNSKNTLYLQMNSLRAEDTAVYYCAKDPAWGLRLGESSSYDFDIWGQGTMVTVSS
Take B15: in assay [2], the “His-ZAP cell killing, cyno PSMA Average EC50” value turned out to be 5.8 pM. In addition, the “His-ZAP cell killing, human PSMA Average EC50” value in assay [3] is 5.7 pM.

B16: 1.18-6GS-2.15 (bispecific antibody, not shown: small tags and cut ends)
chain: EVQLLESGGGLVQPGGSLRLSCAASGFSFSSYALSWVRQAPGKGLEWVSSIGENNATTDYAASVKGRFTISRDNSKNTLYLQMNSLRVEDTAVYYCVKDGVHWGQGTLVTVSSGGGGSGGGGSGGGGSGGGGSGGGGSGGGGSEVQLVESGGGVVQPGRSLRLSCAASGFSFSGYGLHWVRQAPGKGLEWVAYISYDKSNKYYADKVKGRFTISRDNSKNTLYLQMNSLRAEDTAVYYCAKDPAWGLRLGESSSYDFDIWGQGTMVTVSS
For B16, the “His-ZAP cell killing, cyno PSMA Average EC50” value in assay [2] was 10 pM.

B17: 1.18-6GS-2.22 (bispecific antibody, not shown: small tags and cut ends)
chain: EVQLLESGGGLVQPGGSLRLSCAASGFSFSSYALSWVRQAPGKGLEWVSSIGENNATTDYAASVKGRFTISRDNSKNTLYLQMNSLRVEDTAVYYCVKDGVHWGQGTLVTVSSGGGGSGGGGSGGGGSGGGGSGGGGSGGGGSEVQLVESGGGVVQPGRSLRLSCAASGFSFSGYGTHWVRQAPGKGLEWVAYISYDGSNKYYAAPVKGRFTISRDNSKNTLYLQMNSLRAEDTAVYYCAKDAAWGLRLGESSSYDFDIWGQGTMVTVSS
Regarding B17, the “His-ZAP cell killing, cyno PSMA Average EC50” value in assay [2] came out at 14 pM. Moreover, the “His-ZAP cell killing, human PSMA Average EC50” value in assay [3] turned out to be 15 pM.

B18: 1.18-6GS-2.17 (bispecific antibody, not shown: small tags and cut ends)
chain: EVQLLESGGGLVQPGGSLRLSCAASGFSFSSYALSWVRQAPGKGLEWVSSIGENNATTDYAASVKGRFTISRDNSKNTLYLQMNSLRVEDTAVYYCVKDGVHWGQGTLVTVSSGGGGSGGGGSGGGGSGGGGSGGGGSGGGGSEVQLVESGGGVVQPGRSLRLSCAASGFSFSGYGMHWVRQAPGKGLEWVAYISYDASNKYYADNVKGRFTISRDNSKNTLYLQMNSLRAEDTAVYYCAKDPAWGLRLGESSSYDFDIWGQGTMVTVSS
For the molecule B18, the “His-ZAP cell killing, cyno PSMA Average EC50” value in assay [2] was 5.6 pM. For the same molecule, in assay [3], the “His-ZAP cell killing, human PSMA Average EC50” value stood at 12 pM.

These data come from US20190023807A1 (CRESCENDO BIOLOGICS, published 2019).
